From the nanobody polyreactivity screen of Harvey et al. (2022)

experiment: yeast display, Sf9 membrane polyspecificity reagent, FACS + sequencing; frameworks hold sequencing errors
How it was run: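 After 36–48 hours of galactose induction, yeast (Saccharomyces cerevisiae BJ5465) displaying a synthetic nanobody library were stained at 4 °C for 1 hour with 10% biotinylated, detergent-solubilized Sf9 membrane reagent. Streptavidin microbeads enriched the stained cells before FACS sorting into low and high (top ~1%) gates on anti-HA and streptavidin fluorescence. Each clone's polyreactivity label reflects its gate of origin.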

Sequence	polyreactivity (PSR sort gate)
QVQLVESGGGLVQAGGSLRLSCAASGFIFRVNAMGWYRQAPGKERELVATITWNGGSTYYADSVKGRFTISRDNAKNTVYLQMNSLKPEDTAVYYCNRVRYRGYYPGPYSYSYDYWGQGTQVTVSS	low polyreactivity
QVQLVESGGGLVQAGGSLRLSCAASGSIYYFNAMGWYRQAPGKERELVASITSGGSTNYADSVKGRFTLSRDNAKNTVYLQMNSLNPEDTAVYYCNARFPYLSRWLVRGLASYDYWGQGTQVTVSS	low polyreactivity
QVQLVESGGGLVQAGGSLRLSCAASGRTFTTYAMGWYRQAPRKERELVASISRRGGSTYYADSVKGRFTISRDNAKNTVYLQMNSLKPEDTAVYYCNAGGVRKYGYWGQGTQVTVSS	high polyreactivity
QVQLVESGGGLVQAGGSLRLSCAASGSILYIYAMGWYRQAPGKERELVAAITSSVGRTYYADSVKGRFTISRDNAKNTVYLQMNSLKPEDTAVYYCAAEYYYSQVAYDYWGQGTQVTVSS	high polyreactivity
QVQLVDSGGGLVQAGGSLRLSCAASGSIFPDNAMGWYRQAPGKEWEFVAAINWSTGTTYYADSVKGRFTISRDNAKNTVYLQMNSLKPEDTAVYYFNASDQAKYDYWGQGTQVTVSS	low polyreactivity
QVQLVESGGGLVQSGGSLRLSCDPSGSIFSHNAMGWYRQAPGKERELVAAITASSGSTYYADSVKGRFTISRDNAKNTVYLQMNSLKPEVNAVYFCARVSRKRHQQDGKYGYWGQGTQVTVSS	high polyreactivity
QVQLVESRGGLVQAGGSLRLSCAASGSIFRSYAMGWYRQAPGKERELVAAIRGSDGNTYYADSVKGRFTISRDNPKNTVYLQMNSLKPEDTAVYYCAADGCLVDDSATRLYYWGQGTQVTVSS	high polyreactivity
QVQLVESGGGLVQAGGSLRLSCAASGSIFGYYTMGWYRQAPGKERELVAAITYSGGSTYYADSVKGRFTISRDNAKNTVYLQMNSLKPEDTAVYYCNAKSAAHRYVRRHDYWGQGTQVTVSS	low polyreactivity
QVQLVESGGGLDQAGGSLRLSCAASGITFLDNDMGWYRQAPGKERELVAAINSGVSTYYADSVKGRFTISLDNAKNTVYLQMNSLKPEDTAVYYCAADRPDVAGDYWGQGTQVTVSS	low polyreactivity
QLQLVESGGGLVQAGGSLRLSCAASGSTFAANAMGRYRQAPGKERELVAASTSSGGSTYYADSVKGRFTISRDNAQNTVYLQMNSLKPEDTAVYYCAADRWYITLSIDATISYDYWGQGTQVTVSS	low polyreactivity
QVKLVESGGGLVQAGGSLRLSCAASGSTFVGYAMGWYRQAHGKERELVAAINDSGGSTYYADSVKGRFTISRDNAKNTVYLQMNSLKPEDTAVYYCAADSSGTSWYTFDYWGQGTQVTVSS	low polyreactivity
QVQLVESGGGLVQAGGSLRLSCAASGRIFHSKAMGWYRQAPGKERELVAAITWSTGRTYYADSVKGRFTISRDNAKNTVYLQMNSLKPEDTAVYYCFRFSYYTGDYWGQGTQVTVSS	high polyreactivity
QVQLVESGGGLVQAGGSLRLSCAASGFIFWENAMGWSRQAPGKERELVAAISKSGTRTYYADSVKGRFTISRDNAKNTVYLQMNSLKPEDTAVYYCAAEGSGYEYYYWGQGTQVTVSS	high polyreactivity
QVQLVESGGGLVQAGGSLRLICAASGFTFRAYAMGWYRQAPGKERELVAAISTVGGSTYYADSVKGRFTISRDNAKNTVYLQMNSLKPEETAVYYCAARRRTGREYGYWGKGTQVTVSS	high polyreactivity
QVQHVESAGGLVQAGGSLRLSCAASGSIFWYAMGWYRQAPGKERELVDGISRGGSTYYADSVKGRFTISRDNAKNTVYLQMNSLKPEDTAVYYFNTAGYYGTPYNYWGQGTQVTVSS	low polyreactivity
QVQLVESGGGLVQAGGSLRLSCAASGSTFILNAMGSYRQAPGKERELVAAISLSGGSTYYADSVKGRFTISRDNAKNTVYLQMNSQKPEDTAVYYCAAEQWYDNYLEYDYWGQGTQVTLSS	high polyreactivity
